Experimental data published in US5891673, “Lck binding protein” (Syntex (U.S.A.) Inc., dated 1999).

B1: GST-LckBP1-#5 (other)
chain: MEAPTTAYKKTTPIEAASSGARGLKAKFESLAEEKRKREEEEKAQQMARQQQERKAVVKMSREVQQ
B2: GST-LckBP1-#4 (other)
chain: MEAPTTAYKKTTPIEAASSGARGLKAKFESLAEEKRKREEEEKAQQMARQQQERKAVVKMSREVQQPSMPVEEPAAPAQLPKKISSEVWPPAESHLPPESQPVRSRREYPVPSLPTRQSPL
B3: GST-LckBP1-#8 (other)
chain: AIALYDYQGEGSDELSFDPDDIITDIEMVDEGWWRGQCRGHFGLFPANYVKLL

molecular target: biotinylated GST (Schistosoma japonicum (Blood fluke), UniProt P08515 = GST, biotinylated (sites not given)); assay: blot of GST-LckBP1 deletion mutants probed with biotinylated GST
Text: DNA deletion fragments were obtained by PCR, and subcloned into the pGEX-2T vector (FIG. 7). The fusion proteins produced in *E. coli* were subjected to SDS-PAGE, transferred to a nitrocellulose filter, and probed with biotinylated GST or GST-Lck SH3 protein.

Question: Does B1 bind?
Answer: no binding

Question: Does B2 bind?
Answer: no binding

Question: Does B3 bind?
Answer: no binding
